# T1: Biotinylated Recombinant human BAFFR Protein (human, UniProt Q96RJ3 7-71, limits assumed, biotinylated)
# T1 construct: The label says that it carries a his tag; also called BAFFR-his-Bio
# T1 sequence (looked up): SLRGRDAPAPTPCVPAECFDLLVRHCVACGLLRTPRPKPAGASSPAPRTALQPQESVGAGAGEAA
# T2: murine-derived GPRC5D overexpressed on CHOS cells (CHOS-mouseGPRC5D) (mouse (murine-derived), UniProt Q9JIL6 1-344)
# T2 construct: whole, on cells; also called GPRC5D murine-derived positive cell line
# T2 sequence (looked up): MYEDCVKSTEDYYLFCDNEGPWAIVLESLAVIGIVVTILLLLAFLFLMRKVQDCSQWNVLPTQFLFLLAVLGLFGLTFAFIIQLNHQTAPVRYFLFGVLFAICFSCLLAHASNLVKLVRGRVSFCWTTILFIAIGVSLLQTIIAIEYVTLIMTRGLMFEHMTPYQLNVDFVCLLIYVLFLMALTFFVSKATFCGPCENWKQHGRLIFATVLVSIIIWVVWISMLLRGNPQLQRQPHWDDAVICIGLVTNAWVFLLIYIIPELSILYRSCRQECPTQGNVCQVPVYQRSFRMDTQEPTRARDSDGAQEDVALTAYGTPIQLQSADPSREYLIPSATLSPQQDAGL
# B1: clone #18, single domain antibody displayed as monoclonal phage (phage level) (VHH)
# VHH: QVQLQQWGAGLLKPSETLSLTCAVYGGSFSGYYWSWIRQPPGKGLEWIGEINHSGSTNYNPSLKSRVTISVDTSKNQFSLKLSSVTAADTAVYYCARARRYGGRTRFDPWGQGTLVTVSS
# notes: Tested as a monoclonal phage antibody (M13 display, detected with anti-M13); also called clone number 18
# B2: Clone 18, antibody in the IgG form (protein level) (antibody, V domains shown)
# VH: B1 VHH
# notes: Expressed from an IgG expression plasmid in CHOS cells, purified by Protein A 'into the IgG form', detected with anti-human IgG Fc gamma; also called anti-GPRC5D IgG
# B3: GPRC5D CAR 2436 (#39), on CAR-T cells (other)
# chain: EVQLLESGGGLVQPGGSLRLSCAASGFIFSSYGMGWVRQAPGKGLEWVSSISSSGDYTYYADSVKGRFTISRDNSKNTLYLQMNSLRAEDTAVYYCARMSFRRYDHWGQGTLVTVSSFVPVFLPAKPTTTPAPRPPTPAPTIASQPLSLRPEACRPAAGGAVHTRGLDFACDIYIWAPLAGTCGVLLLSLVITLYCNHRNKRGRKKLLYIFKQPFMRPVQTTQEEDGCSCRFPEEEEGGCELRVKFSRSADAPAYQQGQNQLYNELNLGRREEYDVLDKRRGRDPEMGGKPRRKNPQEGLYNELQKDKMAEAYSEIGMKGERRRGKGHDGLYQGLSTATKDTYDALHMQALPPR
# B4: Positive Benchmark1 Ab (GC5B596) (antibody)
# scFv: GSQVQLVQSGAEVKKPGASVKVSCKASGYSFTGYTMNWVRQAPGQGLEWMGLINPYNSDTNYAQKLQGRVTMTTDTSTSTAYMELRSLRSDDTAVYYCARVALRVALDYWGQGTLVTVSSGGGGSGGGGSGGGGSDIQMTQSPSSLSASVGDRVTITCKASQNVATHVGWYQQKPGKAPKRLIYSASYRYSGVPSRFSGSGSGTEFTLTISNLQPEDFATYYCQQYNRYPYTFGQGTKLEIKSR
# notes: […] variable region from GC5B596 of CN 109715667 A. As positive control antibody it was detected with anti-human IgG, so it carried a human constant part; also called control antibody benchmark 1
# B5: clone #39, single domain antibody displayed as monoclonal phage (phage level) (VHH)
# VHH: EVQLLESGGGLVQPGGSLRLSCAASGFIFSSYGMGWVRQAPGKGLEWVSSISSSGDYTYYADSVKGRFTISRDNSKNTLYLQMNSLRAEDTAVYYCARMSFRRYDHWGQGTLVTVSS
# notes: Tested as a monoclonal phage antibody (M13 display, detected with anti-M13); also called clone number 39
# B6: Clone 39, antibody in the IgG form (protein level) (antibody, V domains shown)
# VH: B5 VHH
# notes: as for B2
# B7: CAR 2254 (Benchmark1), on CAR-T cells (other)
# chain: GSQVQLVQSGAEVKKPGASVKVSCKASGYSFTGYTMNWVRQAPGQGLEWMGLINPYNSDTNYAQKLQGRVTMTTDTSTSTAYMELRSLRSDDTAVYYCARVALRVALDYWGQGTLVTVSSGGGGSGGGGSGGGGSDIQMTQSPSSLSASVGDRVTITCKASQNVATHVGWYQQKPGKAPKRLIYSASYRYSGVPSRFSGSGSGTEFTLTISNLQPEDFATYYCQQYNRYPYTFGQGTKLEIKSRFVPVFLPAKPTTTPAPRPPTPAPTIASQPLSLRPEACRPAAGGAVHTRGLDFACDIYIWAPLAGTCGVLLLSLVITLYCNHRNKRGRKKLLYIFKQPFMRPVQTTQEEDGCSCRFPEEEEGGCELRVKFSRSADAPAYQQGQNQLYNELNLGRREEYDVLDKRRGRDPEMGGKPRRKNPQEGLYNELQKDKMAEAYSEIGMKGERRRGKGHDGLYQGLSTATKDTYDALHMQALPPR
# B8: clone #41, single domain antibody displayed as monoclonal phage (phage level) (VHH)
# VHH: EVQLLESGGGLVQPGGSLRLSCAASGFSFSGYIMGWVRQAPGKGLEWVSSTSSSGTETYYADSVKGRFTISRDNSKNTLYLQMNSLRAEDTAVYYCARYYSKYGRSYHVDSWGQGTLVTVSS
# notes: Tested as a monoclonal phage antibody (M13 display, detected with anti-M13); also called clone number 41
# B9: Clone 41, antibody in the IgG form (protein level) (antibody, V domains shown)
# VH: B8 VHH
# notes: as for B2
# Assays:
# Human GPRC5D Protein-VLP [1] = molecular target: T3, Human GPRC5D Protein-VLP (human, UniProt Q9NZD1 1-345); assay: phage ELISA, coated antigen, detection anti-M13 then HRP anti-mouse IgG
# T3 construct: Bought reagent; also called GPRC5D-VLP; target antigen
# T3 sequence (Q9NZD1 whole entry): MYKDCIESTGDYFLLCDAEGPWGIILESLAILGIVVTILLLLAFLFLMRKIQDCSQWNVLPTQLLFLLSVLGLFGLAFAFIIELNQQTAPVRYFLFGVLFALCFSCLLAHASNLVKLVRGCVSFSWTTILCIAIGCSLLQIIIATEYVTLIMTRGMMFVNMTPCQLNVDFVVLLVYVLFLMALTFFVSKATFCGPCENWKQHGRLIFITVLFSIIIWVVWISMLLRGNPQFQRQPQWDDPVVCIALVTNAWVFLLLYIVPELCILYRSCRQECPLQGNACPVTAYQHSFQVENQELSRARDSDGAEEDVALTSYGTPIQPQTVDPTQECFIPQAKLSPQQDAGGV
# [2] = molecular target: T1, Biotinylated Recombinant human BAFFR …; assay: as above
# [3] = molecular target: T4, Biotinylated Human IL-10 Protein (human, UniProt P22301 19-178, biotinylated); assay: as above
# T4 construct: also called IL10-Bio
# T4 sequence (P22301 19-178 limits assumed): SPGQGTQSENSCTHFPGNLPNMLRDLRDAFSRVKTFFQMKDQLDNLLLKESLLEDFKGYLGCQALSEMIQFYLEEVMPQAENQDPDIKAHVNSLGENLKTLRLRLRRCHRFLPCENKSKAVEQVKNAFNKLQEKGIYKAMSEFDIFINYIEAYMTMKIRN
# Streptavidin [4] = molecular target: T5, Streptavidin (UniProt P22629 37-163, limits assumed); assay: as above
# T5 construct: also called SA
# T5 sequence (P22629 37-163 limits assumed): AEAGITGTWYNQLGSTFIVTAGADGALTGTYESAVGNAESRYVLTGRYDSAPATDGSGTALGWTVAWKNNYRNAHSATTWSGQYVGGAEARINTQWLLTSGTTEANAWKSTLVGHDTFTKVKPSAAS
# [5] = molecular target: T6, human GPRC5D expressed on the cell surface (CHO-K1-GPRC5D cells; MM1S, U266, 8226, H929 cells) (human, UniProt Q9NZD1 1-345); assay: FACS titration (300 nM to 0.00384 nM) on CHO-K1-GPRC5D cells
# T6 construct: whole, on cells; The cell line used is named under assay or readout in each row; also called GPRC5D-positive cells
# T6 sequence (Q9NZD1 whole entry): as the sequence (Q9NZD1 whole entry) above
# [6] = molecular target: T2, murine-derived GPRC5D overexpressed on …; assay: FACS titration on CHOS-mouse-GPRC5D cells (lower graph)
# [7] = molecular target: T7, monkey-derived GPRC5D overexpressed on CHOS cells (CHOS-macaqueGPRC5D) (macaque (monkey-derived)); assay: FACS titration on CHOS-macaque-GPRC5D cells (upper graph)
# T7 construct: whole, on cells; also called CHOS-macaqaueGPRC5D; GPRC5D monkey-derived positive cell line
# Human GPRC5D Protein-VLP [8] = molecular target: T3, Human GPRC5D Protein-VLP; assay: ELISA, coated antigen, purified IgG-form antibody, detection HRP anti-human IgG
# [9] = molecular target: T1, Biotinylated Recombinant human BAFFR …; assay: as above
# [10] = molecular target: T4, Biotinylated Human IL-10 Protein; assay: as above
# Streptavidin [11] = molecular target: T5, Streptavidin; assay: as above
# [12] = molecular target: T6, human GPRC5D expressed on the cell …; assay: cell-based or functional assay
# [13] = molecular target: T6, human GPRC5D expressed on the cell …; assay: cell-based or functional assay; remark: listed apart in the source
# [14] = molecular target: T6, human GPRC5D expressed on the cell …; assay: cell-based or functional assay; remark: listed apart in the source
# [15] = molecular target: T1, Biotinylated Recombinant human BAFFR …; assay: ELISA, coated antigen, detection HRP anti-human IgG
# [16] = molecular target: T4, Biotinylated Human IL-10 Protein; assay: as above
# Streptavidin [17] = molecular target: T5, Streptavidin; assay: as above
binder,measurement,setting,value
B1,binding result,Human GPRC5D Protein-VLP [1],binds
same,binding result,[2],no binding
same,binding result,[3],no binding
same,binding result,Streptavidin [4],no binding
B2,EC50,[5],1.58 nM
same,TOP (MFI),[5],3460 MFI
same,EC50 (read off the curve),[6],~2 nM
same,EC50 (read off the curve),[7],~10 nM
same,binding result,Human GPRC5D Protein-VLP [8],binds
same,binding result,[9],no binding
same,binding result,[10],no binding
same,binding result,Streptavidin [11],no binding
B3,CD107a+/CAR+CD8+% after co-incubation with 8226 (GPRC5D+) cells,[12],76.5%
same,CD107a+/CAR+CD8+% after co-incubation with MM.1S (GPRC5D+) cells,[12],63.5%
same,CD107a+/CAR+CD8+% after co-incubation with U266 (GPRC5D+) cells,[12],78.8%
same,IFN-γ (IFN+/CAR+ %) after co-incubation with 8226-luc (GPRC5D+) cells,[13],54.8%
same,IFN-γ (IFN+/CAR+ %) after co-incubation with H929-luc (GPRC5D+) cells,[13],57.6%
same,IFN-γ (IFN+/CAR+ %) after co-incubation with MM1.s-luc (GPRC5D+) cells,[13],50.9%
same,IFN-γ (IFN+/CAR+ %) after co-incubation with U266-luc (GPRC5D+) cells,[13],49%
same,TNF-α (TNFα+/CAR+ %) after co-incubation with 8226-luc (GPRC5D+) cells,[13],45%
same,TNF-α (TNFα+/CAR+ %) after co-incubation with H929-luc (GPRC5D+) cells,[13],51.6%
same,TNF-α (TNFα+/CAR+ %) after co-incubation with MM1.s-luc (GPRC5D+) cells,[13],38.5%
same,TNF-α (TNFα+/CAR+ %) after co-incubation with U266-luc (GPRC5D+) cells,[13],42.5%
same,"Proliferation fold, 1st round stimulation by target cells 8226",[14],10.1 fold
same,"Proliferation fold, 2nd round stimulation by target cells 8226",[14],51.2 fold
same,"Proliferation fold, 3rd round stimulation by target cells 8226",[14],146 fold
same,"Proliferation fold, 4th round stimulation by target cells 8226",[14],330 fold
same,"Proliferation fold, 5th round stimulation by target cells 8226",[14],595 fold
same,"Proliferation fold, 6th round stimulation by target cells 8226",[14],1160 fold
same,"Proliferation fold, 7th round stimulation by target cells 8226",[14],2050 fold
B4,binding result,[15],no binding
same,binding result,[16],no binding
same,binding result,Streptavidin [17],no binding
B5,binding result,Human GPRC5D Protein-VLP [1],binds
same,binding result,[2],no binding
same,binding result,[3],no binding
same,binding result,Streptavidin [4],no binding
B6,EC50,[5],6.93 nM
same,TOP (MFI),[5],2800 MFI
same,binding result,[6],binds
same,binding result,Human GPRC5D Protein-VLP [8],binds
same,binding result,[9],no binding
same,binding result,[10],no binding
same,binding result,Streptavidin [11],no binding
B7,CD107a+/CAR+CD8+% after co-incubation with 8226 (GPRC5D+) cells,[12],45%
same,CD107a+/CAR+CD8+% after co-incubation with MM.1S (GPRC5D+) cells,[12],50.7%
same,CD107a+/CAR+CD8+% after co-incubation with U266 (GPRC5D+) cells,[12],9.68%
same,IFN-γ (IFN+/CAR+ %) after co-incubation with 8226-luc (GPRC5D+) cells,[13],25.1%
same,IFN-γ (IFN+/CAR+ %) after co-incubation with H929-luc (GPRC5D+) cells,[13],12.2%
same,IFN-γ (IFN+/CAR+ %) after co-incubation with MM1.s-luc (GPRC5D+) cells,[13],31.1%
same,IFN-γ (IFN+/CAR+ %) after co-incubation with U266-luc (GPRC5D+) cells,[13],5.25%
same,TNF-α (TNFα+/CAR+ %) after co-incubation with 8226-luc (GPRC5D+) cells,[13],12%
same,TNF-α (TNFα+/CAR+ %) after co-incubation with H929-luc (GPRC5D+) cells,[13],5.21%
same,TNF-α (TNFα+/CAR+ %) after co-incubation with MM1.s-luc (GPRC5D+) cells,[13],17.7%
same,TNF-α (TNFα+/CAR+ %) after co-incubation with U266-luc (GPRC5D+) cells,[13],1.12%
same,"Proliferation fold, 1st round stimulation by target cells 8226",[14],7.15 fold
same,"Proliferation fold, 2nd round stimulation by target cells 8226",[14],41.9 fold
same,"Proliferation fold, 3rd round stimulation by target cells 8226",[14],101 fold
same,"Proliferation fold, 4th round stimulation by target cells 8226",[14],172 fold
same,"Proliferation fold, 5th round stimulation by target cells 8226",[14],240 fold
same,"Proliferation fold, 6th round stimulation by target cells 8226",[14],321 fold
same,"Proliferation fold, 7th round stimulation by target cells 8226",[14],313 fold
B8,binding result,Human GPRC5D Protein-VLP [1],binds
same,binding result,[2],no binding
same,binding result,[3],no binding
same,binding result,Streptavidin [4],no binding
B9,EC50,[5],41 nM
same,TOP (MFI),[5],3690 MFI
same,binding result,[6],binds
same,EC50 (read off the curve),[7],~7 nM
same,binding result,Human GPRC5D Protein-VLP [8],binds
same,binding result,[9],no binding
same,binding result,[10],no binding
same,binding result,Streptavidin [11],no binding

# From patent US20250049852A1 (SHANGHAI IASO BIOTECHNOLOGY, published 2025)
